The nature of this series: soluble on expression in E. coli; label from the status in PepcDB or PDB records.
Consider “MLTSHFPLPFAGHRLHIVDFDASSFREHDLLWLPHHDRLRSAGRKRKAEHLAGRIAAVHALREVGVRTVPGMGDKRQPLWPDGLFGSISHCATTALAVISRQRIGIDIEKIMSQHTATELAPSIIDSDERQILQASLLPFPLALTLAFSAKESVYKAFSDRVTLPGFNSAKVTSLTATHISLHLLPAFAATMAERTVRTEWFQRDNSVITLVSAITRVPHDRSAPASILSAIPR”, for which the “soluble on expression in E. coli” value is reported as “not soluble”.
With “MDAPLAEQDLKALFLRHARQLQSYLLRKTRDPHLAADLAQESFLRLAEQRHKEPIEHVDAYLYRTAHNLTIDHYRQERRRRTETQPNDDLAGFVADQPGPEESAVDADALARLREIVAELPPRTREIFRLNRLEGLTHAEVARRLEISDSSVQKHLARTLAHVMQALEDSR” the entry was “not soluble”; with “GSHMNRFLTSIVAWLRAGYPEGIPPTDSFAVLALLCRRLSHDEVKAVANELMRLGDFDQIDIGVVITHFTDELPSPEDVERVRARLAAQGWPLDDVRDREEHA”, “soluble”.
As for “MGSDKIHHHHHHMTTLPYFQPAASPASAGEGSASLSPVIALKDLVARLDREQRKAQELLASLGFALRSFTNLGQFLELIPLIASRVTDTEGSLLLTFRPDGRFWQAQLHCTDPRLAETLNRIPASLPVGTAPSGSPTEAIAEIDRQVQRCLGRNAQLFATAVLVRNQARGRLYVFSLDGQYSWNESRQKLVRLVADQTAVAIENDALTTELRQKERLDRELEIGAEIQLQLLPSQCPAIEGLEIAAACRTASRVGGDYYDFIPTRTHSDEQGRLQPDAGSPWAIAIGDIMGKGVPAGLIMTMLRGMLRAEVLNRHRPSRVLAHLNQVIYADLEHSNRFATLFYSEYDPSSRLLTFSNAAHNPPLLWQQATGTLKRLDTFGMMIGLEADNAYAEQHVQLQPGDVVLYYTDGLTDAADPRGNRFDEENVAIAFREACRRRLSAEALLADLFNRVQRFIGPDRHNEDDMTLVVLRAV”, the entry is “not soluble”; as for “MGSDKIHHHHHHMRILYINHYAGSPRHGMEFRPYYLAREWVKAGHEVNMLAADVSHLRQTHPQVDGKYRDEDIDGIRYTWCKTRPYSGNGVGRVLNIFSFLAKVMGLSRRYLKEWQPDVVIASSTYPLDTVPAAWIAGKTGARLVYEVHDLWPLTPVEVGGMSPKHPFIRLLQWAEDFGYKRADTVVSMLPCARDYMMAHGMAAEKYAVIPNGVDVSEWQGETLPLSAEHRMRLAELKSHGRFIVGYAGGHGLANALDYLLEAAALMRDAPVTFVLVGDGPDKQALVSRAAELKLDNVMFLPSIAKRSVPAFLAECDALYIGWRKLPIYRFGINPNKLFDYMMAGKPVIHSVEAGNDMVKDAGAGLSIGVEDPAVIADAVKRMAVLPLAERETMGAAGKAYVLANHDYAVLARRFLAAVKL”, “not soluble”; as for “MLFNFREKLNSRKFLVTAEVSPPKGTRFSASLEDASQLKGIADALNVTDNQCSIMHMSSLAFSKLLLDEGHEPIMQLTCRDRNRIGLQSDLLGAYALGIRNICLMTGDYPTCGDHPGSKPVYDVDSVQLIELVRKLDTGVDFAGNKLDGGTSFCAGAVSGIDPEKTMQLIKLQKKVKCGADFIQTQAVYDIGMFEEFMDAVNYLEVPVIAGLIPLKSLGMAEFMNKNISGIHVPEEIMLRMKDASSPMEEGLLIASETIKELTKLSRGIHVMPIGSHRNTARLLSLAGISQ”, “not soluble”.
Consider “MGVSGYGHDDLGRETLDKVFAEVMGAEAAAVRVQFVSGTHAIACALFGVLRPGDEMLAVVGSPYDTLEEVIGLRGQGQGSLIEFGIKYRQLELTSQGSIDWQTLSTSITDHTRLVLIQRSCGYSWRPSLSIADIEKVVNLVKQQNPHTVCFVDNCYGEFIETQEPTHVGADLMAGSLIKNPGGTIVTAGGYVAGRADLVEAAACRLTAPGIGSYGGATFLEHHHHHH”, for which the “soluble on expression in E. coli” value is on record as “soluble”.
As for “MAQLAKTAVAALSKKLVAPAAVARRTLATEASPEDYGYYPDPLEHATGREKKMLLARLAGDDRYEPKVYYRAEASTKQKPNLVPSHYDFRIIGCMCEQDSGHVNFMTIRKGDPKRCECGHWFKGVDADPESI”, the entry is “not soluble”; as for “SRTPAKGNGADPIRLPVRSGIRESRLEFHYHYSNFLVYGEAGSGKTKSIGKWLLSEYMRLGFAGFIYDFKDTDYTRTAYNLIKRHRYPHKFYYVSFDRPERSYRFNPLKVVRDRTELIQLMEDVLLALLPKKEQQNEWVAGGLGILRGVAFRFWDEFPEHCTLPHILAFIMTASARQLSLFLQQNLVSEMLAGAYLKAEGSEKTQASYLSTLCNNLATISQNEEIAYVLSGDDFDFNLIDPETPKLFAVSNNFSKNSVYAPVISMLMTISARQFSMQNRVPFVYFLDEMTTVNIKNFETLPSVLREYKAAFILLTQSGAKLENLYGKLDRSSVEANFGNMFLGRTKDVEALKYYPLFFGKEEKERRSRSSGKSGASSSSSVTVSSQKEDIYQGKDFADLEPGEFIGSATRANVSYFKVKLEMYDDRNEEPLPDVRVLEPGELGRNFARILEEVRELFPCE”, “not soluble”.
With “GPGSMLTGALRLSSHRVQDFIVTTCDKAFMLSSRTRLDKKTVETILLAGYSRIPVYLNDNRRHILGTLIVQSLVILCFTNPNKPPRAGEYPLLETLRLPASTTLYNSYLAFQKNSSNMAVVYDNCGVMVGLWTLTDLLCTLYNTSPAHEGSNTHRQELMVTLLESMKAMNAARRKAQGNVNSAIESEEFFVGGRKK” the entry was “not soluble”; with “MPEITLNCQKLPCPQPVLRCKALLDTEAPARCTVTVDNAPASENVARFLTSRGYDTSVHADPEGLWNIIAVRKDSAVAPSCDCEVMDARGIAAIAGTAEMPQKVTVFITSETLGSGDDVLGGKLMANFLATLPELGDELWRIVCVNGGVRLATREHPAVTHLNKLEAMGVDILVCGTCLDHFGLLSEKAVGQTTNMLDVVTSLQLATKVIRPLEHHHHHH”, “soluble”.
On to “DKIIMDPHAVLGPVDPQLGQYPAPSIVRAVEKKGVDKVDDQTLILADVAEKAIRQVRDFIFNLLKDKYGEEKAKELAQVLTEGRWTHDYPITVEEAKKLGLNVSTDVPEEVYALMELYKQPIRQRGTVEFVPYPMKQEGK”, for which the “soluble on expression in E. coli” value was “not soluble”.
For the sequence “MKATLFVREFLLNPRTIGAILPSSDYLAEKMMASVCFEQAKYIIEYGPGTGVFTDKILRYRHPDTVVMIIEHNREFFCILNEKYQDEKNVIIINGSAEHIETYVKEHNIPFVDYIISGLPFASLPLHVSNAILNKARYLLGVKGKFITFQYTQTKVRLFTQFFNQMTVERVYRNLPPAFVFSCYNEKLEHHHHHH”, the “soluble on expression in E. coli” value is on record as “soluble”.
As to “MGSDKIHHHHHHMTLLDRFDGGFARDGEDIIAGSRIEDARIHNRRLVFETIFQRGPISRVEISAIVGLKPQTISSITRELLEQELIVEAGRSSGLRGQPQIYLEANAEAGFSIGVHLDQNQCHILVFDLKRQERARKSMRCDTANPDVTVRMLAQTITTLLHDNALPAERIWGLGLVLPTFGSDVYDFDFSMRHWEAWRDASFAEDLQRLTGFAVLVENDGTAAAIGERLHRHDAQEASFAYFYIGHGAGAGLIIDGYPFKGVGGNAGEIGLLPILGLGANPVWPDNPSSAVQGGVLSIGGLAAACGLSEQSMDEQSILSLLERRDHRLMDWLASAASVLRDVCAVIEVMFDPGFIAVGGALPRALVERLVDRAYPLRPTPSARRDRALPRLLPATLIEDAAVTGAAMLPIFVTTSHNFRHLYFRQILADDRS”, the “soluble on expression in E. coli” value is “not soluble”.
As for “MWRVGVYSSLRGYKRLNFCCEMLIAAYPKVGECAREGLMDKEVCINAAKGRFLGLRLPELFGGSDMRLNRSCRRRNMKLAAWCMLIQCDSRGGNHAAEVREIGDITKIAICQQCDFECAGPSANFKVTRLQGLRTLKAANRSESLNVEGCYALQSLLM”, the entry is “not soluble”.

The values are drawn from the DeepSol protein solubility set.
